In US20220411483A1 (Chugai, published 2022):

T1: human FcγRIIa R type extracellular domain with C-terminal His tag (human, UniProt P12318 34-217)
T1 construct: extracellular domain; also called FcgRIIaR
T1 sequence (looked up): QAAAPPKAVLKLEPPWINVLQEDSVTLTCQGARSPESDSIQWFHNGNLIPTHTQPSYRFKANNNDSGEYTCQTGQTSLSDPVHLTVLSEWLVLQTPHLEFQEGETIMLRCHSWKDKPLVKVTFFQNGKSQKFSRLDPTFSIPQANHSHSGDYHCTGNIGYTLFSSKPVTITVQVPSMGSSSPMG

T2: human FcγRIIb extracellular domain with C-terminal His tag (human, UniProt P31994 43-217)
T2 construct: extracellular domain; also called FcgRIIb
T2 sequence (looked up): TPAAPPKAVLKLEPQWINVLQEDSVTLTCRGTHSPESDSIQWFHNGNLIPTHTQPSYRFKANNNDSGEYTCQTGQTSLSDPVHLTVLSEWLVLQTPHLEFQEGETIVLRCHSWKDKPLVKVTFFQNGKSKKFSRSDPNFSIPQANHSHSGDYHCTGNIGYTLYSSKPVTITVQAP

T3: human FcγRIIa H type extracellular domain with C-terminal His tag (human, UniProt P12318 34-217)
T3 construct: extracellular domain; also called FcgRIIaH
T3 sequence (looked up): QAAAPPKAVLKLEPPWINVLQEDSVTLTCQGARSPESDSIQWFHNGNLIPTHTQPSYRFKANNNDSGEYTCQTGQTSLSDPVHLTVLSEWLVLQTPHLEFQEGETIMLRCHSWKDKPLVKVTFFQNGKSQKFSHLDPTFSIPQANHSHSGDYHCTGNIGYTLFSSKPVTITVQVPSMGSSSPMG


Experiments:
[1] = target: T1, human FcγRIIa R type extracellular …; experiment: SPR, KD of IL6R-G1d/IL6R-L divided by KD of variant
[2] = target: T4, human FcγRIIIa V type extracellular domain with C-terminal His tag (human, UniProt P08637 17-208); experiment: as above
T4 construct: extracellular domain; also called FcgRIIIaV

[3] = target: T5, human FcγRIa extracellular domain with C-terminal His tag (human, UniProt P12314 16-292); experiment: as above
T5 construct: Whole entry named; also called FcgRIa

[4] = target: T2, human FcγRIIb extracellular domain with …; experiment: as above
[5] = target: T3, human FcγRIIa H type extracellular …; experiment: as above
[6] = target: T1, human FcγRIIa R type extracellular …; experiment: SPR, antibody captured, FcgR analyte
[7] = target: T5, human FcγRIa extracellular domain with …; experiment: SPR, antibody captured, FcgR analyte
[8] = target: T2, human FcγRIIb extracellular domain with …; experiment: SPR, antibody captured, FcgR analyte

T4 sequence (P08637 17-208 F176V): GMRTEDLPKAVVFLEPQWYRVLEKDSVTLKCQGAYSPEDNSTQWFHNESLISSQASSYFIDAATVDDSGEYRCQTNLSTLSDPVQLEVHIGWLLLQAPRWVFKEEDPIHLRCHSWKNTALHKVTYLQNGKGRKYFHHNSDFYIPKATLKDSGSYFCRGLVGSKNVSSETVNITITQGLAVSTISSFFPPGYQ
T5 sequence (P12314 16-292): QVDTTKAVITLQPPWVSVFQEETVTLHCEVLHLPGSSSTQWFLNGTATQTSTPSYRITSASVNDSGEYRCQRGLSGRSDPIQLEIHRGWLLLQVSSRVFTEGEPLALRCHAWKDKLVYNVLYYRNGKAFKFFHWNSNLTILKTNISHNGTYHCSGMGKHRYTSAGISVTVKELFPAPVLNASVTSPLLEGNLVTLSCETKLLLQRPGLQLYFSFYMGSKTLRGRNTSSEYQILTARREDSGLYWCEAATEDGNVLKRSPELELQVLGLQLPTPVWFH

| Relative FcgRIIaR-binding Activity [1] | Relative FcgRIIIaV-binding Activity [2] | Relative FcgRIa-binding Activity [3] | Relative FcgRIIb-binding Activity [4] | Relative FcgRIIaH-binding Activity [5] | Kd [6] [nM] | Kd [7] [nM] | Kd [8] [nM] | Binder |
| --- | --- | --- | --- | --- | --- | --- | --- | --- |
| 0.79 | 0.005 | 0.058 | 14 | 0.024 | 1400 | 5.5 | 150 | IL6R-P759/IL6R-L (antibody, human IgG1, kappa) heavy: QVQLQESGPGLVKPSETLSLTCAVSGHSISHDHAWSWVRQPPGEGLEWIGFISYSGITNYNPSLQGRVTISRDNSKNTLYLQMNSLRAEDTAVYYCARSLARTTAMDYWGEGTLVTVSSASTKGPSVFPLAPSSKSTSGGTAALGCLVKDYFPEPVTVSWNSGALTSGVHTFPAVLQSSGLYSLSSVVTVPSSSLGTQTYICNVNHKPSNTKVDKKVEPKSCDKTHTCPPCPAPDLLGDDSVFLFPPKPKDTLMISRTPEVTCVVVDVSDEDGEVKFNWYVDGVEVHNAKTKPREEQYNSTYRVVSVLTVLHQDWLNGKEYKCKVSNKGLPSSIEKTISKAKGQPREPQVYTLPPSRDELTKNQVSLTCLVKGFYPSDIAVEWESNGQPENNYKTTPPVLDSDGSFFLYSKLTVDKSRWQQGNVFSCSVMHEALHNHYTQKSLSLSP light: not shown |
| 0.52 | 0.006 | 0.086 | 42 | 0.026 | 2100 | 3.7 | 50 | IL6R-P764/IL6R-L (antibody, human IgG1, kappa) heavy: QVQLQESGPGLVKPSETLSLTCAVSGHSISHDHAWSWVRQPPGEGLEWIGFISYSGITNYNPSLQGRVTISRDNSKNTLYLQMNSLRAEDTAVYYCARSLARTTAMDYWGEGTLVTVSSASTKGPSVFPLAPSSKSTSGGTAALGCLVKDYFPEPVTVSWNSGALTSGVHTFPAVLQSSGLYSLSSVVTVPSSSLGTQTYICNVNHKPSNTKVDKKVEPKSCDKTHTCPPCPAPELLGGDSVFLFPPKPKDTLMISRTPEVTCVVIDVSEEDGEVKFNWYVDGVEVHNAKTKPREEQYNSTYRVVSVLTVLHQDWLNGKEYKCKVSNKALPAPIEKTISKAKGQPREPQVYTLPPSRDELTKNQVSLTCLVKGFYPSDIAVEWESNGQPENNYKTTPPVLDSDGSFFLYSKLTVDKSRWQQGNVFSCSVMHEALHNHYTQKSLSLSP light: not shown |
| 0.69 | 0.014 | 0.438 | 21 | 0.034 | 1600 | 0.73 | 100 | IL6R-P763/IL6R-L (antibody, human IgG1, kappa) heavy: QVQLQESGPGLVKPSETLSLTCAVSGHSISHDHAWSWVRQPPGEGLEWIGFISYSGITNYNPSLQGRVTISRDNSKNTLYLQMNSLRAEDTAVYYCARSLARTTAMDYWGEGTLVTVSSASTKGPSVFPLAPSSKSTSGGTAALGCLVKDYFPEPVTVSWNSGALTSGVHTFPAVLQSSGLYSLSSVVTVPSSSLGTQTYICNVNHKPSNTKVDKKVEPKSCDKTHTCPPCPAPELLGGDSVFLFPPKPKDTLMISRTPEVTCVVVDVAEEDGEVKFNWYVDGVEVHNAKTKPREEQYNSTYRVVSVLTVLHQDWLNGKEYKCKVSNKALPAPIEKTISKAKGQPREPQVYTLPPSRDELTKNQVSLTCLVKGFYPSDIAVEWESNGQPENNYKTTPPVLDSDGSFFLYSKLTVDKSRWQQGNVFSCSVMHEALHNHYTQKSLSLSP light: not shown |
| 0.69 | 0.008 | 0.021 | 11.1 | 0.027 | 1600 | 15 | 190 | IL6R-P760/IL6R-L (antibody, human IgG1, kappa) heavy: QVQLQESGPGLVKPSETLSLTCAVSGHSISHDHAWSWVRQPPGEGLEWIGFISYSGITNYNPSLQGRVTISRDNSKNTLYLQMNSLRAEDTAVYYCARSLARTTAMDYWGEGTLVTVSSASTKGPSVFPLAPSSKSTSGGTAALGCLVKDYFPEPVTVSWNSGALTSGVHTFPAVLQSSGLYSLSSVVTVPSSSLGTQTYICNVNHKPSNTKVDKKVEPKSCDKTHTCPPCPAPELLGDDSVFLFPPKPKDTLMISRTPEVTCVVVDVSEEDGEVKFNWYVDGVEVHNAKTKPREEQYNSTYRVVSVLTVLHQDWLNGKEYKCKVSNKGLPSSIEKTISKAKGQPREPQVYTLPPSRDELTKNQVSLTCLVKGFYPSDIAVEWESNGQPENNYKTTPPVLDSDGSFFLYSKLTVDKSRWQQGNVFSCSVMHEALHNHYTQKSLSLSP light: not shown |
| 0.32 | 0.007 | 0.052 | 3.8 | 0.021 | 3400 | 6.1 | 550 | IL6R-P762/IL6R-L (antibody, human IgG1, kappa) heavy: QVQLQESGPGLVKPSETLSLTCAVSGHSISHDHAWSWVRQPPGEGLEWIGFISYSGITNYNPSLQGRVTISRDNSKNTLYLQMNSLRAEDTAVYYCARSLARTTAMDYWGEGTLVTVSSASTKGPSVFPLAPSSKSTSGGTAALGCLVKDYFPEPVTVSWNSGALTSGVHTFPAVLQSSGLYSLSSVVTVPSSSLGTQTYICNVNHKPSNTKVDKKVEPKSCDKTHTCPPCPAPELLGGDSVFLFPPKPKDTLMISRTPEVTCVVVDVSHEDGEVKFNWYVDGVEVHNAKTKPREEQYNSTYRVVSVLTVLHQDWLNGKEYKCKVSNKGLPSSIEKTISKAKGQPREPQVYTLPPSRDELTKNQVSLTCLVKGFYPSDIAVEWESNGQPENNYKTTPPVLDSDGSFFLYSKLTVDKSRWQQGNVFSCSVMHEALHNHYTQKSLSLSP light: not shown |
| 0.52 | 0.008 | 0.178 | 39.6 | 0.028 | 2100 | 1.8 | 53 | IL6R-P765/IL6R-L (antibody, human IgG1, kappa) heavy: QVQLQESGPGLVKPSETLSLTCAVSGHSISHDHAWSWVRQPPGEGLEWIGFISYSGITNYNPSLQGRVTISRDNSKNTLYLQMNSLRAEDTAVYYCARSLARTTAMDYWGEGTLVTVSSASTKGPSVFPLAPSSKSTSGGTAALGCLVKDYFPEPVTVSWNSGALTSGVHTFPAVLQSSGLYSLSSVVTVPSSSLGTQTYICNVNHKPSNTKVDKKVEPKSCDKTHTCPPCPAPELLGGDSVFLFPPKPKDTLMISRTPEVTCVVIDVAHEDGEVKFNWYVDGVEVHNAKTKPREEQYNSTYRVVSVLTVLHQDWLNGKEYKCKVSNKALPAPIEKTISKAKGQPREPQVYTLPPSRDELTKNQVSLTCLVKGFYPSDIAVEWESNGQPENNYKTTPPVLDSDGSFFLYSKLTVDKSRWQQGNVFSCSVMHEALHNHYTQKSLSLSP light: not shown |
| 0.5 | 0.008 | 0.33 | 7.2 | 0.025 | 2200 | 0.97 | 290 | IL6R-P766/IL6R-L (antibody, human IgG1, kappa) heavy: QVQLQESGPGLVKPSETLSLTCAVSGHSISHDHAWSWVRQPPGEGLEWIGFISYSGITNYNPSLQGRVTISRDNSKNTLYLQMNSLRAEDTAVYYCARSLARTTAMDYWGEGTLVTVSSASTKGPSVFPLAPSSKSTSGGTAALGCLVKDYFPEPVTVSWNSGALTSGVHTFPAVLQSSGLYSLSSVVTVPSSSLGTQTYICNVNHKPSNTKVDKKVEPKSCDKTHTCPPCPAPELLGGDSVFLFPPKPKDTLMISRTPEVTCVVVDVAEEDGEVKFNWYVDGVEVHNAKTKPREEQYNSTYRVVSVLTVLHQDWLNGKEYKCKVSNKGLPSSIEKTISKAKGQPREPQVYTLPPSRDELTKNQVSLTCLVKGFYPSDIAVEWESNGQPENNYKTTPPVLDSDGSFFLYSKLTVDKSRWQQGNVFSCSVMHEALHNHYTQKSLSLSP light: not shown |
| 1 | 0.008 | 0.04 | 17.5 | 0.036 | 1100 | 8 | 120 | IL6R-P761/IL6R-L (antibody, human IgG1, kappa) heavy: QVQLQESGPGLVKPSETLSLTCAVSGHSISHDHAWSWVRQPPGEGLEWIGFISYSGITNYNPSLQGRVTISRDNSKNTLYLQMNSLRAEDTAVYYCARSLARTTAMDYWGEGTLVTVSSASTKGPSVFPLAPSSKSTSGGTAALGCLVKDYFPEPVTVSWNSGALTSGVHTFPAVLQSSGLYSLSSVVTVPSSSLGTQTYICNVNHKPSNTKVDKKVEPKSCDKTHTCPPCPAPDLLGDDSVFLFPPKPKDTLMISRTPEVTCVVVDVSEEDGEVKFNWYVDGVEVHNAKTKPREEQYNSTYRVVSVLTVLHQDWLNGKEYKCKVSNKGLPSSIEKTISKAKGQPREPQVYTLPPSRDELTKNQVSLTCLVKGFYPSDIAVEWESNGQPENNYKTTPPVLDSDGSFFLYSKLTVDKSRWQQGNVFSCSVMHEALHNHYTQKSLSLSP light: not shown |
